The supplement of paper PMC10065799, “High-throughput profiling of sequence recognition by tyrosine kinases and SH2 domains using bacterial peptide display” (eLife, 2023)
One block for each sequence: values may come before it.

Key:
[1] = tested on: Fer (mouse); assay: phosphorylation enrichment, bacterial display (enrichment ratio); higher = better substrate or ligand; peptides without Tyr show the background
[2] = target: EPHB2 (UniProt P29323); assay: as above
[3] = tested on: AncSZ; assay: as above
[4] = tested on: c-Src; assay: as above
[5] = tested on: c-Abl (mouse); assay: as above
[6] = target: Fyn (UniProt P06241); assay: as above
[7] = target: MERTK (UniProt Q12866); assay: as above
[8] = target: FGFR1 (UniProt P11362); assay: as above
[9] = target: Jak2 (UniProt O60674); assay: as above
[10] = target: Hck (UniProt P08631); assay: as above
[11] = target: FGFR3 (UniProt P22607); assay: as above
[12] = target: Fes (UniProt P07332); assay: as above
[13] = target: EPHB1 (UniProt P54762); assay: as above
[14] = target: SHP2-C SH2; assay: SH2 binding enrichment of the phosphorylated peptide, bacterial display (enrichment ratio); higher = better substrate or ligand; peptides without Tyr show the background
[15] = target: Grb2 SH2 (UniProt P62993); assay: as above
[16] = target: c-Src SH2; assay: as above
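For SH2 binding enrichment of the phosphorylated peptide, bacterial display in this document: peptide library displayed on the E. coli surface as eCPX fusions, selected cells deep-sequenced, score is each peptide's frequency after selection divided by its frequency in the input.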
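For phosphorylation enrichment, bacterial display in this document: 11-residue human phosphosite peptides and single-mutation variants displayed on the E. coli surface, counted by deep sequencing, each peptide's frequency after selection divided by its frequency in the unselected input library; frequency after pTyr selection over input frequency; kinase dosed for 20-30% of maximal phosphorylation in three min.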

Chain of Fyn (P06241 whole entry, looked up): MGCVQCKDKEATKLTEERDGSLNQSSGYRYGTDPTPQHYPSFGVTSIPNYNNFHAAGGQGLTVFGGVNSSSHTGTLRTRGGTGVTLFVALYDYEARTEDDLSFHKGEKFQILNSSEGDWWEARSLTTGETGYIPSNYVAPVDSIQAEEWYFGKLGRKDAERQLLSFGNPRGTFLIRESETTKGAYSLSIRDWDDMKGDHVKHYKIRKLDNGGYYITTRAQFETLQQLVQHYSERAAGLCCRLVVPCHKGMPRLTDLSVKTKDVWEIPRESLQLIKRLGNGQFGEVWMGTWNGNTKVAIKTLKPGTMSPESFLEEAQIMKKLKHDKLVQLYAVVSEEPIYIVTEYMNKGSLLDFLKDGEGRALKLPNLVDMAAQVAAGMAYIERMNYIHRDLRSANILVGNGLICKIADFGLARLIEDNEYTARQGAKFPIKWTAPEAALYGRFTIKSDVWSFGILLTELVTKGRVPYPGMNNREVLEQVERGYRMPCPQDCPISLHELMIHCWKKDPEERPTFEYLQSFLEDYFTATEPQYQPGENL
Chain of Fes (P07332 whole entry, looked up): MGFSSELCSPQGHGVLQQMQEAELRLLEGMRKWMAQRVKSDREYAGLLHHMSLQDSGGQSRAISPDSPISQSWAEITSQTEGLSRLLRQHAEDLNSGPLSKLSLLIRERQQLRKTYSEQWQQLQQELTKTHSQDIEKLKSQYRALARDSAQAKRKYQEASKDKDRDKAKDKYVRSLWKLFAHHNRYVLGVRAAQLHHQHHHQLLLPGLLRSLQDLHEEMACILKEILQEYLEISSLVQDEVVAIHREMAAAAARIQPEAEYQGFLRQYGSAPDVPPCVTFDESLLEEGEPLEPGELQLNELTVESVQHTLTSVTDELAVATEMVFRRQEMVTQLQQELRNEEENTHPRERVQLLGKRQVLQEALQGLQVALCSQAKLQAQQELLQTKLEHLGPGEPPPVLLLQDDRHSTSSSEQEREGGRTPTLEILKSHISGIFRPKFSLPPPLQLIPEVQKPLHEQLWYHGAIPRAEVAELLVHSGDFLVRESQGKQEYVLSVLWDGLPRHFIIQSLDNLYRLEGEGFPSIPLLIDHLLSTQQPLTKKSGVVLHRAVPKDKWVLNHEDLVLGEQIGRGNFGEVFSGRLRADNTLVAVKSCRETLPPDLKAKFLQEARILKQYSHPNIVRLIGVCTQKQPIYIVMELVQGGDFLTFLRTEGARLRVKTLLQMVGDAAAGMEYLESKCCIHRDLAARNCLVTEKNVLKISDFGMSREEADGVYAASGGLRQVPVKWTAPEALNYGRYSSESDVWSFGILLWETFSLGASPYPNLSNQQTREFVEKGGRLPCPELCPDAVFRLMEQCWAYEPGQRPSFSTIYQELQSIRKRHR
Chain of EPHB1 (P54762 whole entry, looked up): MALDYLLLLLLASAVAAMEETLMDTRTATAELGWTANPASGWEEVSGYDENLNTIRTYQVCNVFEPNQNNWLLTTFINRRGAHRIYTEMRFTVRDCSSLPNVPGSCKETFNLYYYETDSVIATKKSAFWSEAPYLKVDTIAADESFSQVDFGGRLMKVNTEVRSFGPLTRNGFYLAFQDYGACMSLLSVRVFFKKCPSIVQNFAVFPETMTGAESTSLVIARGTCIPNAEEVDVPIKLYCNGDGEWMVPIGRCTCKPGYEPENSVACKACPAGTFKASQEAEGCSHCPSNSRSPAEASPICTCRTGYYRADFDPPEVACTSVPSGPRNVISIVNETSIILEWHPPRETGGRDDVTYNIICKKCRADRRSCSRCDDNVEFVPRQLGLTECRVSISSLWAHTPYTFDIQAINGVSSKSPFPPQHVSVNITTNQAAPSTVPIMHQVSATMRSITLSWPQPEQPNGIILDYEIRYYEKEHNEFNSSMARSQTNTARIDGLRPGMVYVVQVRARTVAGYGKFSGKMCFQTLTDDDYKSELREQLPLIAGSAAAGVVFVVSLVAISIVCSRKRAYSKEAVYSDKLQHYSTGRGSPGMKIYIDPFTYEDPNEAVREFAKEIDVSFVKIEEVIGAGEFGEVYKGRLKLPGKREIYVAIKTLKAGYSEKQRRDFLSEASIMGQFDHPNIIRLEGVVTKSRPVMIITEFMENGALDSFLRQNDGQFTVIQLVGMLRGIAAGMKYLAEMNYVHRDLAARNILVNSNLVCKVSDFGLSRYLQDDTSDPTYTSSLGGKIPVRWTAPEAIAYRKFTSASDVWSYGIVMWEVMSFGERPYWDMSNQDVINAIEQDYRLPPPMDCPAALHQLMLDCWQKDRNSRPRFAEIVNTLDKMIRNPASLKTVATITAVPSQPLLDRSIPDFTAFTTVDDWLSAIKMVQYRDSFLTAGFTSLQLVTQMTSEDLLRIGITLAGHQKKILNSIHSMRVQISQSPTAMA
Chain of EPHB2 (P29323 whole entry, looked up): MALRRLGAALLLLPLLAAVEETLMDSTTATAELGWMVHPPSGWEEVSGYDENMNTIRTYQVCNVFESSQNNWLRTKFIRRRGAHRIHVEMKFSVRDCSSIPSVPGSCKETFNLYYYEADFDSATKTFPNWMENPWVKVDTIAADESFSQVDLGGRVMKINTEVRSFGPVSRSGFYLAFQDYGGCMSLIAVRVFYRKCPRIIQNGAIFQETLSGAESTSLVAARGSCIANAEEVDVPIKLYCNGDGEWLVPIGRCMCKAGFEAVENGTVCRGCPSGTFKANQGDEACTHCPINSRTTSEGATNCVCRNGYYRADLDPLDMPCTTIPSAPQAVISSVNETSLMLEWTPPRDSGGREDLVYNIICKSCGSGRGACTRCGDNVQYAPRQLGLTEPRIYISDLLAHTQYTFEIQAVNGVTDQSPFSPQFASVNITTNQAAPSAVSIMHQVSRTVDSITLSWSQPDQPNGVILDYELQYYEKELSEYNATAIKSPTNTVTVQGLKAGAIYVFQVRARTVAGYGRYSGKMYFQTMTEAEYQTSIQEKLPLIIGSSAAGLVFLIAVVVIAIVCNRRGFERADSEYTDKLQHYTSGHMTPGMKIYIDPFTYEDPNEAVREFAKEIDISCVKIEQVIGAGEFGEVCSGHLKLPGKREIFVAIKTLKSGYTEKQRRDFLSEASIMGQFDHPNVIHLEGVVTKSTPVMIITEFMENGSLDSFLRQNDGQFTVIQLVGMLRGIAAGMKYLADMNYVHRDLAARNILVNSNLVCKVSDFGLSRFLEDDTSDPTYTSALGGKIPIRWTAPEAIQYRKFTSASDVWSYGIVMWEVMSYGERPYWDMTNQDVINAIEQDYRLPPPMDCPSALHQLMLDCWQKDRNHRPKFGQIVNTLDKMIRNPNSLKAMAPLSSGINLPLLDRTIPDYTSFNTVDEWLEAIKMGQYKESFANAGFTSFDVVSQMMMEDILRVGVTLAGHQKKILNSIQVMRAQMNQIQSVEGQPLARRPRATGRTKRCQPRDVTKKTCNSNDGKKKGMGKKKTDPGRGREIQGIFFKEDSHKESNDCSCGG
Chain of Hck (P08631 whole entry, looked up): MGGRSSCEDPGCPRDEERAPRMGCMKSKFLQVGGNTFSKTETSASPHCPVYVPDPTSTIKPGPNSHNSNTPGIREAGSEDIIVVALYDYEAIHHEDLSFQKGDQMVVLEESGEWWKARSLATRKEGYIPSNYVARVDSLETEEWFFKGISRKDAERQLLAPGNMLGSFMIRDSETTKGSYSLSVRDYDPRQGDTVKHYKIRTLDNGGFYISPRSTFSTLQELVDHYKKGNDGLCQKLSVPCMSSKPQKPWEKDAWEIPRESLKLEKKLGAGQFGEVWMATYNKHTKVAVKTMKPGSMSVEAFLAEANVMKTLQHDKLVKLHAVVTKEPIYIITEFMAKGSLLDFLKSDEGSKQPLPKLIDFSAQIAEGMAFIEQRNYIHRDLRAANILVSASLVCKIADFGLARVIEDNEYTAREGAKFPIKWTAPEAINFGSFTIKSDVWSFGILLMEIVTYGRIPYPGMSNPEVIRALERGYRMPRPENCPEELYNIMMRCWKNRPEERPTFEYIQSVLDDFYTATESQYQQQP
Chain of FGFR3 (P22607 whole entry, looked up): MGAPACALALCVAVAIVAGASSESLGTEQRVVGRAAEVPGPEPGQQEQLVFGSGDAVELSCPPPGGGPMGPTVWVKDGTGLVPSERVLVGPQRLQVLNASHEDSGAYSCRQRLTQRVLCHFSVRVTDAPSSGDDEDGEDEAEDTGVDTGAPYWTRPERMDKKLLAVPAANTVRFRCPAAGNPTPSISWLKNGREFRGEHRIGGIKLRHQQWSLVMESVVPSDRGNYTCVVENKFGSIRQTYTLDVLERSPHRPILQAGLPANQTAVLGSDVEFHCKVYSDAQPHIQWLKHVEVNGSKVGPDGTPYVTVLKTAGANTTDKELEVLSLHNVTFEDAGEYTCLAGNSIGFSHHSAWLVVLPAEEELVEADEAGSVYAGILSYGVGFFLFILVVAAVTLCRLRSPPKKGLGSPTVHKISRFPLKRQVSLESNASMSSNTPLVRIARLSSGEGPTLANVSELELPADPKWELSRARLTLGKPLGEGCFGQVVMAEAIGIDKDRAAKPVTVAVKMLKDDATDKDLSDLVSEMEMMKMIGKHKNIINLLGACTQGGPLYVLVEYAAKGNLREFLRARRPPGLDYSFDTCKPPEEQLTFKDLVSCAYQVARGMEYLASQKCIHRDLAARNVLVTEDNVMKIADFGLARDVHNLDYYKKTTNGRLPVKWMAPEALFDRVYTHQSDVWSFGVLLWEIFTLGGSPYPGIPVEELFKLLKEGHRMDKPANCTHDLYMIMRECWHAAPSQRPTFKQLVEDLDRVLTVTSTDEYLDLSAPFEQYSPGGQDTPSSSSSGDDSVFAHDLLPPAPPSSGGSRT

SH2 binding enrichment [14]: 0.797
SH2 binding enrichment [15]: 0.977
SH2 binding enrichment [16]: 0.591
Sequence: SVEVPYEPPEV [TP53_Y220_V217E]
phosphorylation enrichment [1]: 0.572
phosphorylation enrichment [2]: 0.675
phosphorylation enrichment [3]: 1.44
phosphorylation enrichment [4]: 0.549
phosphorylation enrichment [5]: 1.08
phosphorylation enrichment [6]: 0.603
phosphorylation enrichment [7]: 0.564
phosphorylation enrichment [8]: 0.622
phosphorylation enrichment [9]: 1.41
phosphorylation enrichment [10]: 0.596
phosphorylation enrichment [11]: 0.907
phosphorylation enrichment [12]: 1.4
phosphorylation enrichment [13]: 0.579

SH2 binding enrichment [14]: 0.653
SH2 binding enrichment [15]: 0.88
SH2 binding enrichment [16]: 0.472
Sequence: SVIKEYQIRQV [USH2A_Y3623_G3618S]
phosphorylation enrichment [1]: 0.415
phosphorylation enrichment [2]: 0.346
phosphorylation enrichment [3]: 0.648
phosphorylation enrichment [4]: 0.381
phosphorylation enrichment [5]: 0.409
phosphorylation enrichment [6]: 0.352
phosphorylation enrichment [7]: 0.328
phosphorylation enrichment [8]: 0.377
phosphorylation enrichment [9]: 0.567
phosphorylation enrichment [10]: 0.443
phosphorylation enrichment [11]: 0.509
phosphorylation enrichment [12]: 0.68
phosphorylation enrichment [13]: 0.505

SH2 binding enrichment [14]: 0.781
SH2 binding enrichment [15]: 0.826
SH2 binding enrichment [16]: 0.936
Sequence: SVVVPYEPPGV [TP53_Y220_E224G]
phosphorylation enrichment [1]: 0.498
phosphorylation enrichment [2]: 0.53
phosphorylation enrichment [3]: 0.883
phosphorylation enrichment [4]: 0.407
phosphorylation enrichment [5]: 0.494
phosphorylation enrichment [6]: 0.544
phosphorylation enrichment [7]: 0.485
phosphorylation enrichment [8]: 0.469
phosphorylation enrichment [9]: 0.55
phosphorylation enrichment [10]: 0.471
phosphorylation enrichment [11]: 0.56
phosphorylation enrichment [12]: 0.769
phosphorylation enrichment [13]: 0.525

SH2 binding enrichment [14]: 0.619
SH2 binding enrichment [15]: 0.66
SH2 binding enrichment [16]: 0.864
Sequence: SVVVPYEPTEV [TP53_Y220_P223T]
phosphorylation enrichment [1]: 0.709
phosphorylation enrichment [2]: 0.765
phosphorylation enrichment [3]: 0.992
phosphorylation enrichment [4]: 0.482
phosphorylation enrichment [5]: 0.885
phosphorylation enrichment [6]: 0.522
phosphorylation enrichment [7]: 0.578
phosphorylation enrichment [8]: 0.481
phosphorylation enrichment [9]: 1.27
phosphorylation enrichment [10]: 0.506
phosphorylation enrichment [11]: 0.742
phosphorylation enrichment [12]: 1.33
phosphorylation enrichment [13]: 0.725

SH2 binding enrichment [14]: 0.694
SH2 binding enrichment [15]: 0.827
SH2 binding enrichment [16]: 1.83
Sequence: SVVVPYETPEV [TP53_Y220_P222T]
phosphorylation enrichment [1]: 0.639
phosphorylation enrichment [2]: 0.862
phosphorylation enrichment [3]: 1.42
phosphorylation enrichment [4]: 0.505
phosphorylation enrichment [5]: 0.849
phosphorylation enrichment [6]: 0.541
phosphorylation enrichment [7]: 0.556
phosphorylation enrichment [8]: 0.569
phosphorylation enrichment [9]: 1.14
phosphorylation enrichment [10]: 0.56
phosphorylation enrichment [11]: 0.774
phosphorylation enrichment [12]: 1.41
phosphorylation enrichment [13]: 0.715

The next lines start with the sequence.

Sequence: SSSGGYGGGYG [KRT19_Y61_A60G]
phosphorylation enrichment [1]: 0.333
phosphorylation enrichment [2]: 0.337
phosphorylation enrichment [3]: 0.456
phosphorylation enrichment [4]: 0.377
phosphorylation enrichment [5]: 0.374
phosphorylation enrichment [6]: 0.352
phosphorylation enrichment [7]: 0.342
phosphorylation enrichment [8]: 0.408
phosphorylation enrichment [9]: 0.479
phosphorylation enrichment [10]: 0.379
phosphorylation enrichment [11]: 0.335
phosphorylation enrichment [12]: 0.534
phosphorylation enrichment [13]: 0.326
SH2 binding enrichment [14]: 0.62
SH2 binding enrichment [15]: 0.924
SH2 binding enrichment [16]: 0.462

Sequence: STQAHYRLSAF [ADAMTS9_Y100_S96T]
phosphorylation enrichment [1]: 0.386
phosphorylation enrichment [2]: 0.381
phosphorylation enrichment [3]: 0.582
phosphorylation enrichment [4]: 0.323
phosphorylation enrichment [5]: 0.427
phosphorylation enrichment [6]: 0.461
phosphorylation enrichment [7]: 0.409
phosphorylation enrichment [8]: 0.44
phosphorylation enrichment [9]: 0.487
phosphorylation enrichment [10]: 0.456
phosphorylation enrichment [11]: 0.536
phosphorylation enrichment [12]: 0.63
phosphorylation enrichment [13]: 0.395
SH2 binding enrichment [14]: 0.859
SH2 binding enrichment [15]: 0.759
SH2 binding enrichment [16]: 0.513

Sequence: SVFNNYIQTLG [CTNND1_Y174_S171F]
phosphorylation enrichment [1]: 0.391
phosphorylation enrichment [2]: 0.418
phosphorylation enrichment [3]: 0.705
phosphorylation enrichment [4]: 0.402
phosphorylation enrichment [5]: 0.557
phosphorylation enrichment [6]: 0.442
phosphorylation enrichment [7]: 0.411
phosphorylation enrichment [8]: 0.585
phosphorylation enrichment [9]: 0.775
phosphorylation enrichment [10]: 0.463
phosphorylation enrichment [11]: 0.528
phosphorylation enrichment [12]: 0.678
phosphorylation enrichment [13]: 0.835
SH2 binding enrichment [14]: 0.917
SH2 binding enrichment [15]: 1.05
SH2 binding enrichment [16]: 0.739

Sequence: SVVVPYGPPEV [TP53_Y220_E221G]
phosphorylation enrichment [1]: 0.402
phosphorylation enrichment [2]: 0.543
phosphorylation enrichment [3]: 0.75
phosphorylation enrichment [4]: 0.425
phosphorylation enrichment [5]: 0.601
phosphorylation enrichment [6]: 0.46
phosphorylation enrichment [7]: 0.476
phosphorylation enrichment [8]: 0.57
phosphorylation enrichment [9]: 0.689
phosphorylation enrichment [10]: 0.41
phosphorylation enrichment [11]: 0.556
phosphorylation enrichment [12]: 0.739
phosphorylation enrichment [13]: 0.472
SH2 binding enrichment [14]: 0.671
SH2 binding enrichment [15]: 0.835
SH2 binding enrichment [16]: 0.537

Sequence: SYMVRYNQPRV [GRIN2D_Y736]
phosphorylation enrichment [1]: 0.419
phosphorylation enrichment [2]: 0.51
phosphorylation enrichment [3]: 0.721
phosphorylation enrichment [4]: 0.432
phosphorylation enrichment [5]: 0.694
phosphorylation enrichment [6]: 0.38
phosphorylation enrichment [7]: 0.45
phosphorylation enrichment [8]: 0.561
phosphorylation enrichment [9]: 0.651
phosphorylation enrichment [10]: 0.385
phosphorylation enrichment [11]: 0.523
phosphorylation enrichment [12]: 0.734
phosphorylation enrichment [13]: 0.46
SH2 binding enrichment [14]: 1.25
SH2 binding enrichment [15]: 0.871
SH2 binding enrichment [16]: 1.11

Sequence: TDLAFYLVCKG [ASL_Y376_R379C_YF]
phosphorylation enrichment [1]: 0.647
phosphorylation enrichment [2]: 0.593
phosphorylation enrichment [3]: 1.31
phosphorylation enrichment [4]: 0.48
phosphorylation enrichment [5]: 1.14
phosphorylation enrichment [6]: 0.411
phosphorylation enrichment [7]: 0.446
phosphorylation enrichment [8]: 0.551
phosphorylation enrichment [9]: 1.57
phosphorylation enrichment [10]: 0.547
phosphorylation enrichment [11]: 0.94
phosphorylation enrichment [12]: 1.7
phosphorylation enrichment [13]: 0.79
SH2 binding enrichment [14]: 0.461
SH2 binding enrichment [15]: 0.732
SH2 binding enrichment [16]: 0.388

Sequence: TEAEPYFCSLR [NPHS1_Y1138_R1140C_YF]
phosphorylation enrichment [1]: 0.466
phosphorylation enrichment [2]: 0.615
phosphorylation enrichment [3]: 1.11
phosphorylation enrichment [4]: 0.932
phosphorylation enrichment [5]: 0.814
phosphorylation enrichment [6]: 0.544
phosphorylation enrichment [7]: 0.48
phosphorylation enrichment [8]: 0.551
phosphorylation enrichment [9]: 1.51
phosphorylation enrichment [10]: 0.576
phosphorylation enrichment [11]: 0.698
phosphorylation enrichment [12]: 1.22
phosphorylation enrichment [13]: 0.565
SH2 binding enrichment [14]: 0.647
SH2 binding enrichment [15]: 0.848
SH2 binding enrichment [16]: 0.638

Sequence: TEAGDYKLCFD [TMED1_Y103]
phosphorylation enrichment [1]: 0.619
phosphorylation enrichment [2]: 0.65
phosphorylation enrichment [3]: 1.38
phosphorylation enrichment [4]: 0.54
phosphorylation enrichment [5]: 0.888
phosphorylation enrichment [6]: 0.598
phosphorylation enrichment [7]: 0.496
phosphorylation enrichment [8]: 0.653
phosphorylation enrichment [9]: 1.27
phosphorylation enrichment [10]: 0.564
phosphorylation enrichment [11]: 1.02
phosphorylation enrichment [12]: 1.35
phosphorylation enrichment [13]: 0.773
SH2 binding enrichment [14]: 0.636
SH2 binding enrichment [15]: 0.778
SH2 binding enrichment [16]: 0.423

Sequence: TEALYYTDDPA [ADPRS_Y75_T79P]
phosphorylation enrichment [1]: 1.92
phosphorylation enrichment [2]: 0.882
phosphorylation enrichment [3]: 1.97
phosphorylation enrichment [4]: 2.59
phosphorylation enrichment [5]: 1.09
phosphorylation enrichment [6]: 1.91
phosphorylation enrichment [7]: 6.2
phosphorylation enrichment [8]: 5.2
phosphorylation enrichment [9]: 1.06
phosphorylation enrichment [10]: 1.79
phosphorylation enrichment [11]: 5.62
phosphorylation enrichment [12]: 1.82
phosphorylation enrichment [13]: 1.2
SH2 binding enrichment [14]: 0.48
SH2 binding enrichment [15]: 0.513
SH2 binding enrichment [16]: 0.797

Sequence: TEDPEYDVQSK [PTCHD3_Y335]
phosphorylation enrichment [1]: 0.564
phosphorylation enrichment [2]: 0.661
phosphorylation enrichment [3]: 1.18
phosphorylation enrichment [4]: 0.435
phosphorylation enrichment [5]: 0.679
phosphorylation enrichment [6]: 0.616
phosphorylation enrichment [7]: 0.358
phosphorylation enrichment [8]: 0.689
phosphorylation enrichment [9]: 0.936
phosphorylation enrichment [10]: 0.669
phosphorylation enrichment [11]: 0.738
phosphorylation enrichment [12]: 1.01
phosphorylation enrichment [13]: 0.521
SH2 binding enrichment [14]: 0.871
SH2 binding enrichment [15]: 0.913
SH2 binding enrichment [16]: 0.557

Sequence: TEYSQYMRRKN [MAX_Y73_I71S]
phosphorylation enrichment [1]: 0.443
phosphorylation enrichment [2]: 0.563
phosphorylation enrichment [3]: 0.674
phosphorylation enrichment [4]: 0.523
phosphorylation enrichment [5]: 0.418
phosphorylation enrichment [6]: 0.536
phosphorylation enrichment [7]: 0.558
phosphorylation enrichment [8]: 0.548
phosphorylation enrichment [9]: 0.507
phosphorylation enrichment [10]: 0.562
phosphorylation enrichment [11]: 0.508
phosphorylation enrichment [12]: 0.622
phosphorylation enrichment [13]: 0.476
SH2 binding enrichment [14]: 0.411
SH2 binding enrichment [15]: 0.653
SH2 binding enrichment [16]: 0.397

Sequence: TGNPAYRSFSN [IL4R_Y497_A492T]
phosphorylation enrichment [1]: 0.326
phosphorylation enrichment [2]: 0.328
phosphorylation enrichment [3]: 0.595
phosphorylation enrichment [4]: 0.373
phosphorylation enrichment [5]: 0.441
phosphorylation enrichment [6]: 0.369
phosphorylation enrichment [7]: 0.326
phosphorylation enrichment [8]: 0.406
phosphorylation enrichment [9]: 0.422
phosphorylation enrichment [10]: 0.404
phosphorylation enrichment [11]: 0.457
phosphorylation enrichment [12]: 0.584
phosphorylation enrichment [13]: 0.328
SH2 binding enrichment [14]: 0.65
SH2 binding enrichment [15]: 0.791
SH2 binding enrichment [16]: 0.442
